These results are taken from US20240010735A1 (EISAI R AND D MANAGEMENT, published 2024).

The target of experiment [1] is T1, human EphA3 extracellular region-SEAP-His protein (human, UniProt P29320 21-541).
T1 construct: extracellular domain; also called Eph receptor extracellular region-SEAP-His protein; not shown: secretory alkaline phosphatase (SEAP); histidine tag
T1 sequence (looked up): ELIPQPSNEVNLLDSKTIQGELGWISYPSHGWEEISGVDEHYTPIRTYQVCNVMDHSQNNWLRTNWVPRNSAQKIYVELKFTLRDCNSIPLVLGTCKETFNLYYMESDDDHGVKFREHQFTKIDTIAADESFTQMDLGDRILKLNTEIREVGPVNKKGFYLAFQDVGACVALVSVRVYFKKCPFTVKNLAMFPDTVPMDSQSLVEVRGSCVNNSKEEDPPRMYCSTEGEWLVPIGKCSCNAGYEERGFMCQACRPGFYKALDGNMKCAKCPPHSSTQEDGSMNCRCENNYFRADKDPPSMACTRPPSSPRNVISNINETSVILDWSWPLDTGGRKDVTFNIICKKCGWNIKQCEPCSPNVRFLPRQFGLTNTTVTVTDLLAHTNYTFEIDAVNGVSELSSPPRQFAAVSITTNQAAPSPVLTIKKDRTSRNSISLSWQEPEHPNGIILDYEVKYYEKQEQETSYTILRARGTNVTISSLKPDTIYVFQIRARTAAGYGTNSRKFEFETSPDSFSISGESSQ
Kind of experiment: ELISA: SEAP-His proteins (1 nM) captured on anti-6-His antibody, antibody A 10 µg/mL with human IgG 100 µg/mL, HRP anti-mouse IgG, OD450 as % of human EphA4-SEAP-His. In general terms: ELISA stands for enzyme-linked immunosorbent assay.

The target of experiment [2] is T2, human EphA4 extracellular region-SEAP-His protein (human, UniProt P54764 20-547).
T2 construct: also called human EphA4 extracellular region-SEAP-His 10; not shown: secretory alkaline phosphatase (SEAP); histidine tag
Kind of experiment: SPR (Biacore T200): human EphA4 extracellular region-SEAP-His captured on anti-His antibody, antibody B 1.6-100 nM as analyte, 1:1 fit. Here is the method: The binding affinity of antibody B obtained in Example 1 against human EphA4 was determined by surface plasmon resonance (SPR method) employing Biacore T200 (GE Healthcare). First, anti-His antibodies (GE Healthcare, 28-9950-56) were fixed to a sensor chip CMS. Fixation was carried out by amine coupling method employing N-hydroxysuccinimide (NHS) and N-ethyl-N′-(3-dimethylaminopropyl) carbodiimide hydrochloride salt (EDC), and ethanolamine was employed for blocking (the sensor chip and reagents for fixation are all from GE Healthcare). This was diluted with the fixation buffer (10 mM sodium acetate, pH 4.5) to 3.5 μg/mL, and fixed onto the sensor chip according to the protocol accompanying Biacore T200. Human EphA4 extracellular region-SEAP-His 10 was diluted with the running buffer HBS-EP (GE Healthcare, BR-1001-88), and the solution was sent and captured onto the flow cell for 120 seconds (about 10 RU of captured amount). […] Fitting analysis by 1:1 binding model employing the software accompanying the system, BIA evaluation software, was carried out against the binding reaction curve obtained, and the affinity (KD=kd/ka) against human EphA4 was calculated.
A general note: SPR reads the build-up and loss of mass on a sensor chip optically.

The next experiment addresses MBP. Kind of experiment: ELISA: human EphA4 domain-MBP-His proteins (10 nM) captured on anti-6-His antibody, antibody B 10 nM, HRP anti-human IgG Fc fragment antibody, OD450-OD650. Here is the method:
Rabbit anti-6-His antibodies (Bethyl Laboratories) were coated onto the wells of a 96-well plate (Nunc). After incubating at 4° C. overnight, the wells were blocked at room temperature for 1 hour by 1% Block Ace (DS Pharma Biomedical). After washing twice with 0.02% Tween 20/PBS (Nacalai Tesque), human EphA4 extracellular region-MBP-His protein, human EphA4 ligand binding domain-MBP-His protein, human EphA4 fibronectin type III domain 1-MBP-His protein, and human EphA4 fibronectin type III domain 2-MBP-His protein (final concentration 10 nM) were seeded into the wells, and incubated at room temperature for 1 hour. After washing 3 times, antibody B (final concentration 10 nM) was supplemented to the wells, and incubated at room temperature for 1 hour. Horseradish peroxidase-labeled rabbit anti-human IgG Fey fragment antibody (Jackson ImmunoResearch Laboratories) was added, and incubated at room temperature for 1 hour. After washing 5 times, TMB (KPL) solution was added to the wells, and upon confirmation of modest coloring, an equal amount of quenching solution (2 N […]) was added to the wells, and absorbance at 450 nm and 650 nm were read by a microplate reader (PerkinElmer).

T2 sequence (P54764 20-547): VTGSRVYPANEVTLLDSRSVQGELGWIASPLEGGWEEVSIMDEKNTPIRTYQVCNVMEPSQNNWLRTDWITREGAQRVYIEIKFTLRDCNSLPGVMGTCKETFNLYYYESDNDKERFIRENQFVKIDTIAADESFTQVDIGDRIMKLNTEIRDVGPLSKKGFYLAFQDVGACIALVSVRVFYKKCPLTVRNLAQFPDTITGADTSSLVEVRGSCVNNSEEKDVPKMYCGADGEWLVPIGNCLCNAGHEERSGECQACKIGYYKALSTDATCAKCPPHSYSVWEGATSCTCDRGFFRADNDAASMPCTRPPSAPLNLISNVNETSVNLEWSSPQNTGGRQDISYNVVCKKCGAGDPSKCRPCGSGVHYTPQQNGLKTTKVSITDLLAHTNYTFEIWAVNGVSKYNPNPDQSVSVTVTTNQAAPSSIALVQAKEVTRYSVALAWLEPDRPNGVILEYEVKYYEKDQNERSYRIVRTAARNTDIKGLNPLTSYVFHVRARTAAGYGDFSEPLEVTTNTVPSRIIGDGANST

B1: mouse anti-EphA4 monoclonal antibody (antibody A) (antibody, mouse IgG1, kappa, V domains shown)
VH: QVQLKQSGPSLVQPSQSLSITCTVSGFSLTRYGVHWVRQSPGKGLEWLGVIWRGGSTDYNAAFMSRLSITKDNSKSQVFFKMNSLQADDTAIYYCAKESLFGVYYDYGYYSMDYWGQGTSVTVSS
VL: DIQMTQSPSSLSASLGERVSLTCRASQEISGYLSWLQQKPDGTIKRLIYAASTLDSGVPKRFSGSRSGSDYSLTISSLESEDFADYYCLQYASYPLTFGAGTKLELKR
notes: purified from hybridoma supernatant
On to B1, for which the binding result in experiment [1] is reported as “no binding (tested: 10 µg/mL)”.

B2: humanized anti-EphA4 monoclonal antibody (antibody B) (antibody, human IgG2, V domains shown)
VH: QVQLVESGGGVVQPGRSLRLSCAVSGFSLTRFGVHWVRQAPGKGLEWVAVIWRGGSTDYNAAFMSRLTISKDNSKNTVYLQMNSLRAEDTAVYYCAKESLFGVYYDYGYYSMDYWGQGTTVTVSS
VL: DIQMTQSPSSLSASVGDRVTITCRASQEISGYLSWLQQKPGKAPKRLIYAASTLDSGVPSRFSGSRSGTEYTLTISSLQPEDFATYYCLQYASYPLTFGGGTKVEIKR
notes: expressed in Expi293F cells; also called humanized antibody of antibody A; HK2-42 / L1-8
In experiment [2], B2 displayed a koff of 0.000494 s⁻¹ and an on-rate (kon) of 370000 M⁻¹ s⁻¹. Further, in the experiment with MBP, the binding result is recorded as “no binding (tested: 10 nM)”.

As a reminder, the koff is a measure of how fast the partners let go of each other. Broadly, the kon is a measure of how fast the partners come together. Low values mean slower complex formation, high ones faster complex formation.
